Measurements as given in article PMC3025530.
pKi: −log10 of the molar value.

What was measured:
[1] = biological target: ADAM12-Cat (truncated ADAM12 protein consisting of only the pro and catalytic domains) (human) (UniProt O43184); test: enzyme inhibition kinetics
[2] = biological target: ADAM12-S (shorter secreted form of ADAM12), full-length (human) (UniProt O43184); test: enzyme inhibition kinetics

pKi [1] | pKi [2] | Substance
7.95 | 7.66 | N-TIMP-1[T98L] (domain or fragment)
6.61 | < 6.30 | N-TIMP-1[TIMP-2-ABloop] (domain or fragment)
 | 7.18 | N-TIMP-1[TIMP-3-ABloop] (domain or fragment)
 | 6.72 | N-TIMP-1[V4A] (domain or fragment)
 | 6.91 | N-TIMP-1[V4S] (domain or fragment)
8.72 | 7.79 | N-TIMP-1^TACE (V4S/V69L/T98L/TIMP-3-ABloop) (domain or fragment)
8.26 | 7.16 | N-TIMP-2 (N-terminal domain of TIMP-2), wild-type (domain or fragment)
8.60 | 7.55 | N-TIMP-2-ΔABloop (N-TIMP-2 with the AB-loop deleted) (domain or fragment)
9.19 |  | N-TIMP-2^TACE (S2T/A70S/V71L/TIMP-3-ABloop) (domain or fragment)
 | 7.74 | N-TIMP-2^TACE[F34G] (domain or fragment)
8.39 | 7.66 | N-TIMP-2^TACE[L100E] (domain or fragment)
